Assay results as given in paper PMC6839450 (ACS chemical biology, 2015).
Bridges are numbered along the chain shown (N, C = ends). Where no end group is shown, it is not given here. [ ]: non-standard residue; d: D form. The star is where a group is joined. FITC = O=C1OC2(c3ccc(O)cc3Oc3cc(O)ccc32)c2ccc(NC(=S)*)cc21; olefin residue = not defined here

Target: full-length BCL-XL (UniProt Q07817-1 1-233)
Test: fluorescence polarisation

Chain of full-length BCL-XL (Q07817 whole entry): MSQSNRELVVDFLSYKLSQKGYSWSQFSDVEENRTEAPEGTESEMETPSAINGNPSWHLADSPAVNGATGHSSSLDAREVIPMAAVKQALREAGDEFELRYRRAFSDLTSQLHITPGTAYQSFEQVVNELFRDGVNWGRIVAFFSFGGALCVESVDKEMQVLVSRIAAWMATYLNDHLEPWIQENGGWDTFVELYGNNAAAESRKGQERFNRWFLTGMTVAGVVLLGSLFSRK

A Kd of 68 nM was found for {FITC}-EIWIAQELR[olefin residue]IGD[olefin residue]FNAYYA (staple 10-14; not fully specified; reading uncertain) [FITC-BIM SAHBA2] in this work.
